According to patent US20160068844A1 (Sanofi, published 2016):

Experiments:
mouse IL17A = target: T1, mouse IL17A (mouse, UniProt Q62386 26-158); test: ELISA, plates coated with IL17A, serial dilutions of sIL17R, detection with biotinylated anti-IL17RA and streptavidin-HRP
T1 construct: also called recombinant mouse Il17a
T1 sequence (looked up): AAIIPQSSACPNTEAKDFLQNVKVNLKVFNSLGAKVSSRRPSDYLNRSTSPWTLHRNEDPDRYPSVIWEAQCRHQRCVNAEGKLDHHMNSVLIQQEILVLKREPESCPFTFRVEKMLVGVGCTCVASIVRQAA
Experimental: (§1) For sIL17R binding to IL17A, ELISA plates were coated with 100 μg/ml human IL17A or mouse IL17A overnight, then blocked with 1% BSA. Serial two-fold dilutions of sIL17R were added in triplicate to the plate and incubated for 1 h at 37° C. Unbound receptor was washed from the plate in an ELISA plate washer. 100 μl biotinylated anti-IL17RA (1 μg/ml) was added to each well and incubated 1 h at room temperature and excess antibody was washed away. Each well was incubated with streptavidin-HRP conjugate and washed. Bound HRP was measured by incubation with TMBD substrate for 20 minutes followed by addition of acid stop solution. OD was measured at 450 nm.

human IL17A = target: T2, human IL17A (human, UniProt Q16552 24-155); test: as above
T2 construct: also called interleukin-17A
T2 sequence (looked up): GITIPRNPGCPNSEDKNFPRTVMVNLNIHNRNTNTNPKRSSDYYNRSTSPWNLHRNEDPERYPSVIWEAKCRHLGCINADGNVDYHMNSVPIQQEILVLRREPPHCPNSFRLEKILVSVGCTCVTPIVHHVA
Experimental: as §1

B1: sIL17R-9gly-CH3 (soluble human IL-17 receptor A linked by nine glycines to the CH3 domain of human IgG1) (Fc fusion)
chain: SLRLLDHRALVCSQPGLNCTVKNSTCLDDSWIHPRNLTPSSPKDLQIQLHFAHTQQGDLFPVAHIEWTLQTDASILYLEGAELSVLQLNTNERLCVRFEFLSKLRHHHRRWRFTFSHFVVDPDQEYEVTVHHLPKPIPDGDPNHQSKNFLVPDCEHARMKVTTPCMSSGSLWDPNITVETLEAHQLRVSFTLWNESTHYQILLTSFPHMENHSCFEHMHHIPAPRPEEFHQRSNVTLTLRNLKGCCRHQVQIQPFFSSCLNDCLRHSATVSCPEMPDTPEPIPDYMTGGGGGGGGGQPREPQVYTLPPSRDELTKNQVSLTCLVKGFYPSDIAVEWESNGQPENNYKTTPPVLDSDGSFFLYSKLTVDKSRWQQGNVFSCSVMHEALHNHYTQKSLSLSPG
notes: also called sIL17RA-9gly-CH3; sIL17R-9G-CH3
B1: binds (mouse IL17A); binds (human IL17A).
